The results in this text go back to US20110319338A1, “PEPTIDES THAT BIND EUKARYOTIC TRANSLATION INITIATION FACTOR 4E” (The Board of Regents of the University of Texas System, priority 2008, published 2011).

For the series, the system named is ES-2-GFP cells. Description: Mouse i.p. xenograft model of epithelial ovarian cancer. In kind it is in vivo. The method, then:
FIGS. 4A-4C. Anti-tumor activity of [DLys6]GnRH-4EBP1-WT peptide in a xenograft model of EOC. Female nude mice were inoculated i.p. with one million ES-2-GFP cells. At Day 9 after tumor cell inoculation, one group of mice (n=5) was sacrificed (pre-treatment). At Day 9, other groups of mice were administered by i.p. injection with saline (n=11), [DLys6]GnRH (n=11) or [DLys6]GnRH-4EBP1-WT (n=11) at a dose of 3.0 nanomoles per gram body weight Saline or peptide was administered every 2 days thereafter for 11 days (6 doses in total), and mice were sacrificed on Day 20. (FIG. 4A) Visualization under a fluorescence stereoscope of i.p. tumors in pre-treatment mice (at Day 9) including implants on the omentum (ome), and in mice treated with saline, with agonist alone and with [DLys6]GnRH-4EBP1-WT (at Day 20). (FIG. 4B) Hematoxylin eosin-stained sections of tissues of pre-treatment mice (at Day 9) and of saline- and peptide-treated mice (at Day 20). Tumors attached to the omentum extensively involved the pancreas in saline- and agonist-treated mice. Also shown are tumors attached to the broad ligament and mesentery. Bar, 200 micrometers. (FIG. 4C) Quantification of i.p. tumor burden in pre-treatment and treated mice that completed the regimen, expressed as the average percent of area of fluorescence within the abdominal cavity in captured images, and volume of ascites. Median values of tumor burden and ascites volume for each group and statistical significance of differences between groups are indicated.
Animal Studies. Animal studies were approved by the Institutional Animal Care and Use Committee. The ES-2 cell line stably expressing enhanced green fluorescent protein (ES-2-GFP) has been described in previous work (Hara et al., 2007). Four-week-old female nude mice were inoculated i.p. at one site in the lower abdomen with 10^6 ES-2-GFP cells. At Day 9 after tumor cell inoculation, one group of mice (n=5) were killed by CO2 asphyxiation. At Day 9, other groups of mice were administered by i.p. injection with 200 microliters of phosphate-buffered saline (PBS) (n=11), [DLys6]GnRH (n=11) or [DLys6]GnRH-4EBP1-WT peptide (n=11) at a dose of 3.0 nanomoles per gram body weight. Peptides were suspended in PBS and administered at a volume of 200 microliters. PBS or peptide was administered every 2 days thereafter for 11 days (6 doses in total). Mice were sacrificed on Day 20, and ascites harvested. Tumors were visualized under a Leica MZML III fluorescence stereomicroscope equipped with mercury lamp power supply and green fluorescent protein (GFP) filter set. Tumor burden was quantified by measuring areas of fluorescence signals within the abdominal cavity in captured images by using Image Pro Plus 5.0 software (Media Cybernetics, Bethesda, Md.). Slides of paraffin-embedded tissues collected from mice were stained with hematoxylin-eosin. TUNEL-staining of tissue sections was performed using the in situ cell death detection kit (Roche).
To determine the efficacy of [DLys6]GnRH-4EBP1-WT peptide in vivo, a mouse i.p. xenograft model was used that was established from an ES-2 cell line stably expressing GFP (Hara et al., 2007). This model mimics the typical behavior of epithelial ovarian cancer, including i.p. dissemination and ascites formation. This example comprised three treatment groups of mice i) saline, ii) [DLys6]GnRH agonist, and iii) [DLys6]GnRH-4EBP1-WT, where sample size of each group was n=11. The first dose of peptide or saline was administered i.p. to mice at Day 9 after tumor cell inoculation. At Day 9, no ascites had yet formed but tumors had established on the omentum, broad ligament and mesentery which are common sites of ovarian cancer cell attachment (FIGS. 4A,B). A schedule in which peptide was administered every 2 days was chosen, based on the studies of peptide stability in serum (FIG. 6).
Based on studies of other agonist conjugates in xenograft models (19-21), a peptide dose of 3.0 nanomoles per gram body weight was used. […]

[1] abbreviates: drop-out mice, individual animals.

Square brackets hold non-standard residues; d marks the D form. Ends that are not written are not given here.

In the case of “[DLys6]GnRH: GnRH agonist with a D-amino acid substitution at position 6; GnRH-RI-targeting moiety (QHWSY[dK]LRPG; not fully specified (residue 1, C-terminus); ends and bridges not checked)”, under setting [1], the Ascites volume came out at 8.9 mL and the “Percent i.p. tumor burden” value is recorded as 40.9%. Besides, where the note is “mice that completed regimen, Day 20, 3.0 nanomoles per gram body weight i.p. every 2 days, 6 doses”, the “i.p. tumor burden, percent of the abdominal cavity (mean)” value is 56.4%. Moreover, for the setting “mouse, in vivo”, the “Drop-outs (euthanized prior to completion due to morbidity related to ascites accumulation)” value amounted to 1; the “Mice euthanized, day” value is on record as “n = 1, day 16”; the “day of death before completing treatment regimen” value amounted to 17 days. Besides, where the note is “of 11 mice per group”, the “Deaths (died before completing treatment regimen)” value is 2.
